Test results as given in US20160251438A1 (LUDWIG INSTITUTE FOR CANCER RESEARCH, published 2016).

Assays:
[1] = biological target: GARP / TGF-β1 Y336A complex (human, UniProt Q14392 20-662; P01137 30-390); assay: flow cytometry on transfected 293T cells, 5 ug/ml; grade of Loss of binding read by footnote 2 (error bar crosses the 50% threshold)
From the text: (§1) Resolution of the crystal structure of MHG-8 Fab/GARP/TGF-β1 complexes and analysis with the CONTACT software allowed the identification of 22 amino-acids in GARP, 8 amino-acids in LAP and 6 amino-acids in mature TGF-β1 that are located less than 5 Å away from an amino-acid of the light or heavy chain of the MHG-8 Fab (Tables 7a, b and c, and Table 8). Directed mutagenesis was used to construct plasmids encoding HA-tagged forms of GARP or TGF-β1 that are mutated at one, two, or three of these 36 positions (all mutations constructed are indicated in Table 8). […] Antibodies were used at a saturating concentration of 5 μg/ml for labeling. Binding of each antibody to a given mutant GARP/TGF-β1 complex was compared to their binding to wild type (WT) complexes, by determining an I_{m/wt} value (i.e. intensity of binding to mutant by comparison to WT). This value was calculated as follows: I_{m/wt} of antibody X=[Geom on mutant−Geom on control]/[Geom on WT−Geom on control]
(§2) The level of residual binding of anti-GARP or anti-LAP antibodies to each mutant was then calculated by comparison to WT, taking into account the expression levels of mutant and WT forms as measured with anti-HA antibodies. Residual binding was calculated as follows: Residual binding by an anti-GARP or anti-LAP antibody=[I_{m/wt} with anti-GARP or anti-LAP antibody]/[I_{m/wt} with anti-HA antibody]

[2] = biological target: GARP Y137H / TGF-β1 complex (human, UniProt Q14392 20-662; P01137 30-390); assay: as above
From the text: as §1, §2

[3] = biological target: GARP R163E/T165A / TGF-β1 complex (human, UniProt Q14392 20-662; P01137 30-390); assay: as above
From the text: as §1, §2

[4] = biological target: GARP R143Y / TGF-β1 complex (human, UniProt Q14392 20-662; P01137 30-390); assay: as above
From the text: as §1, §2

[5] = biological target: GARP E189A / TGF-β1 complex (human, UniProt Q14392 20-662; P01137 30-390); assay: flow cytometry on transfected 293T cells, 5 ug/ml; grade of Loss of binding read by footnote 2
From the text: as §1, §2

[6] = biological target: GARP / TGF-β1 S337A complex (human, UniProt Q14392 20-662; P01137 30-390); assay: as above
From the text: as §1, §2

[7] = biological target: GARP R166M/H167E / TGF-β1 complex (human, UniProt Q14392 20-662; P01137 30-390); assay: as above
From the text: as §1, §2

[8] = biological target: GARP / TGF-β1 E146R complex (human, UniProt Q14392 20-662; P01137 30-390); assay: as above
From the text: as §1, §2

[9] = biological target: GARP R170A / TGF-β1 complex (human, UniProt Q14392 20-662; P01137 30-390); assay: as above
From the text: as §1, §2

[10] = biological target: GARP R143A / TGF-β1 complex (human, UniProt Q14392 20-662; P01137 30-390); assay: as above
From the text: as §1, §2

[11] = biological target: GARP T162D / TGF-β1 complex (human, UniProt Q14392 20-662; P01137 30-390); assay: as above
From the text: as §1, §2

[12] = biological target: GARP / TGF-β1 Q272Y complex (human, UniProt Q14392 20-662; P01137 30-390); assay: as above
From the text: as §1, §2

[13] = biological target: GARP L140K/E142L / TGF-β1 complex (human, UniProt Q14392 20-662; P01137 30-390); assay: as above
From the text: as §1, §2

[14] = biological target: GARP / TGF-β1 E100A complex (human, UniProt Q14392 20-662; P01137 30-390); assay: as above
From the text: as §1, §2

[15] = biological target: GARP R163A/T165A / TGF-β1 complex (human, UniProt Q14392 20-662; P01137 30-390); assay: as above
From the text: as §1, §2

[16] = biological target: GARP S138G / TGF-β1 complex (human, UniProt Q14392 20-662; P01137 30-390); assay: as above
From the text: as §1, §2

[17] = biological target: T1, recombinant soluble human GARP-TGFβ1 complex (human, UniProt Q14392 20-628; P01137 30-390); assay: SPR (Biacore), hGARP-TGFβ1 immobilised
T1 construct: co-expressed in HEK293E, purified by the Strep-Tag; TGFβ consists of LAP and mature TGFβ; also called shGARP-TGFβ; rhGARP-TGFβ
T1 sequence (Q14392 other isoform, or with tags, fused parts or gaps limits assumed, chain 1 of 2): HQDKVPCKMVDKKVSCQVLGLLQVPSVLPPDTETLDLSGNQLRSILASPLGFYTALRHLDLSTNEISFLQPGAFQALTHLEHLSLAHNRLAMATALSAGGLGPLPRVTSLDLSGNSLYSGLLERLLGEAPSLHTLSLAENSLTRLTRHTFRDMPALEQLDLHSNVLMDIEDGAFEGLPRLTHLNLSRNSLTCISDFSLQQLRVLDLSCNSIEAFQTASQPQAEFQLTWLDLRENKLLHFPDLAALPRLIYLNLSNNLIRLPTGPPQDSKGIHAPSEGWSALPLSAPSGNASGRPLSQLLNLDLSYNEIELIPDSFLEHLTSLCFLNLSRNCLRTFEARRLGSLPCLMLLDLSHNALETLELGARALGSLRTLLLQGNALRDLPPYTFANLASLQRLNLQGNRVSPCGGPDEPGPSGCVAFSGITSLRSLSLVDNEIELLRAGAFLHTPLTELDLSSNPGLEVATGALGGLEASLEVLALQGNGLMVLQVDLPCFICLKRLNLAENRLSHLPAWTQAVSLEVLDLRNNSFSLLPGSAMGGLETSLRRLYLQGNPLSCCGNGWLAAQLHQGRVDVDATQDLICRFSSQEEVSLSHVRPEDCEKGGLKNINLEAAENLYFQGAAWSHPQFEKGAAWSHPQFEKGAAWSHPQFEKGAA
T1 sequence (P01137 30-390 limits assumed, chain 2 of 2): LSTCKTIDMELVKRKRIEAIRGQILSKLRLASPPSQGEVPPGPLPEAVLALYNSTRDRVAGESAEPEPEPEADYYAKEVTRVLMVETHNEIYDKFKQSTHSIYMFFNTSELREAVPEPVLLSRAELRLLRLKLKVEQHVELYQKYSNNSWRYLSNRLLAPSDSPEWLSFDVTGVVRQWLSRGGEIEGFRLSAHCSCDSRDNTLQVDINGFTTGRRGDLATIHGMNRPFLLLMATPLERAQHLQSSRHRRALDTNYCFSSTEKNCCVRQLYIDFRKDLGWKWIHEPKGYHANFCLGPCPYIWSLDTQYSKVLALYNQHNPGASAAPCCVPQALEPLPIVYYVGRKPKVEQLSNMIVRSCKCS

Chain of GARP Y137H / TGF-β1 complex (Q14392 20-662 Y137H limits assumed, chain 1 of 2): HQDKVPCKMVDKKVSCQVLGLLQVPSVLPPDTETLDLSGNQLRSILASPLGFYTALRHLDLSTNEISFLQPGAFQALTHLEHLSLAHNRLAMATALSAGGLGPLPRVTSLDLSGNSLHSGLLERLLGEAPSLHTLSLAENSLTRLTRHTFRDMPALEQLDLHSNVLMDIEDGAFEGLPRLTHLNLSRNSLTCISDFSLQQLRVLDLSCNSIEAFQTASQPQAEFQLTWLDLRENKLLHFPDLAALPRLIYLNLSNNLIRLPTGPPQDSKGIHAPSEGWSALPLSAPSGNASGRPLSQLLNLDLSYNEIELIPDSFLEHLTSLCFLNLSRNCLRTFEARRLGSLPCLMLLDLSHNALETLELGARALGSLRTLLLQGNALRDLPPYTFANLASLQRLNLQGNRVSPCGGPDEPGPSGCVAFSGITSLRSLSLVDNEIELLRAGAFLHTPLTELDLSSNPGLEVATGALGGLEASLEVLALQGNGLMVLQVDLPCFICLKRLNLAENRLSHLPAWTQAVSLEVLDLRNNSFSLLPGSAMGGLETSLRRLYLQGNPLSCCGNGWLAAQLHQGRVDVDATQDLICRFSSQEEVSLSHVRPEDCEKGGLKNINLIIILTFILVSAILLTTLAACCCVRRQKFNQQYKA
Chain of GARP Y137H / TGF-β1 complex (P01137 30-390 limits assumed, chain 2 of 2): as the sequence (P01137 30-390 limits assumed, chain 2 of 2) above
Chain of GARP R170A / TGF-β1 complex (Q14392 20-662 R170A limits assumed, chain 1 of 2): as the sequence (Q14392 20-662 Y137H limits assumed, chain 1 of 2) above, with H118Y, R151A counted along it
Chain of GARP R170A / TGF-β1 complex (P01137 30-390 limits assumed, chain 2 of 2): as the sequence (P01137 30-390 limits assumed, chain 2 of 2) above
Chain of GARP T162D / TGF-β1 complex (Q14392 20-662 T162D limits assumed, chain 1 of 2): as the sequence (Q14392 20-662 Y137H limits assumed, chain 1 of 2) above, with H118Y, T143D counted along it
Chain of GARP T162D / TGF-β1 complex (P01137 30-390 limits assumed, chain 2 of 2): as the sequence (P01137 30-390 limits assumed, chain 2 of 2) above

- residual binding on mutant by comparison to WT [1]: ≥ 50%
- residual binding on mutant by comparison to WT [2]: ≥ 50%
- residual binding on mutant by comparison to WT [3]: ≥ 50%
- residual binding on mutant by comparison to WT [4]: ≥ 50%
- residual binding on mutant by comparison to WT [5]: ≥ 50%
- residual binding on mutant by comparison to WT [6]: ≥ 50%
- residual binding on mutant by comparison to WT [7]: ≥ 50%
- residual binding on mutant by comparison to WT [8]: ≥ 50%
- residual binding on mutant by comparison to WT [9]: ≥ 50%
- residual binding on mutant by comparison to WT [10]: ≥ 50%
- residual binding on mutant by comparison to WT [11]: < 50%
- residual binding on mutant by comparison to WT [12]: ≥ 50%
- residual binding on mutant by comparison to WT [13]: ≥ 50%
- residual binding on mutant by comparison to WT [14]: ≥ 50%
- residual binding on mutant by comparison to WT [15]: ≥ 50%
- residual binding on mutant by comparison to WT [16]: ≥ 50%
- Kd [17]: 131 pM
- fold improvement of KD (reference LHG-10) [17]: 1 fold
- fold improvement of ka (reference LHG-10) [17]: 1 fold
- fold improvement of kd (reference LHG-10) [17]: 1 fold
- koff [17]: 3.12e-05 s⁻¹
- kon [17]: 239000 M⁻¹ s⁻¹
B1: LHG-10 (antibody, human IgG1, V domains shown)
VH: EVQLVQPGAELRNSGASVKVSCKASGYRFTSYYIDWVRQAPGQGLEWMGRIDPEDGGTKYAQKFQGRVTFTADTSTSTAYVELSSLRSEDTAVYYCARNEWETVVVGDLMYEYEYWGQGTQVTVSS
VL: DIQMTQSPTSLSASLGDRVTITCQASQSISSYLAWYQQKPGQAPKLLIYGASRLQTGVPSRFSGSGSGTSFTLTISGLEAEDAGTYYCQQYDSLPVTFGQGTKVELK
notes: llama-derived V regions in a full human IgG1
